Experimental data from patent publication US20260041744.

Target: cellular receptors (CIMPR) on normal and Pompe patient fibroblasts (UniProt P11717)
Sequence (P11717 41-2491): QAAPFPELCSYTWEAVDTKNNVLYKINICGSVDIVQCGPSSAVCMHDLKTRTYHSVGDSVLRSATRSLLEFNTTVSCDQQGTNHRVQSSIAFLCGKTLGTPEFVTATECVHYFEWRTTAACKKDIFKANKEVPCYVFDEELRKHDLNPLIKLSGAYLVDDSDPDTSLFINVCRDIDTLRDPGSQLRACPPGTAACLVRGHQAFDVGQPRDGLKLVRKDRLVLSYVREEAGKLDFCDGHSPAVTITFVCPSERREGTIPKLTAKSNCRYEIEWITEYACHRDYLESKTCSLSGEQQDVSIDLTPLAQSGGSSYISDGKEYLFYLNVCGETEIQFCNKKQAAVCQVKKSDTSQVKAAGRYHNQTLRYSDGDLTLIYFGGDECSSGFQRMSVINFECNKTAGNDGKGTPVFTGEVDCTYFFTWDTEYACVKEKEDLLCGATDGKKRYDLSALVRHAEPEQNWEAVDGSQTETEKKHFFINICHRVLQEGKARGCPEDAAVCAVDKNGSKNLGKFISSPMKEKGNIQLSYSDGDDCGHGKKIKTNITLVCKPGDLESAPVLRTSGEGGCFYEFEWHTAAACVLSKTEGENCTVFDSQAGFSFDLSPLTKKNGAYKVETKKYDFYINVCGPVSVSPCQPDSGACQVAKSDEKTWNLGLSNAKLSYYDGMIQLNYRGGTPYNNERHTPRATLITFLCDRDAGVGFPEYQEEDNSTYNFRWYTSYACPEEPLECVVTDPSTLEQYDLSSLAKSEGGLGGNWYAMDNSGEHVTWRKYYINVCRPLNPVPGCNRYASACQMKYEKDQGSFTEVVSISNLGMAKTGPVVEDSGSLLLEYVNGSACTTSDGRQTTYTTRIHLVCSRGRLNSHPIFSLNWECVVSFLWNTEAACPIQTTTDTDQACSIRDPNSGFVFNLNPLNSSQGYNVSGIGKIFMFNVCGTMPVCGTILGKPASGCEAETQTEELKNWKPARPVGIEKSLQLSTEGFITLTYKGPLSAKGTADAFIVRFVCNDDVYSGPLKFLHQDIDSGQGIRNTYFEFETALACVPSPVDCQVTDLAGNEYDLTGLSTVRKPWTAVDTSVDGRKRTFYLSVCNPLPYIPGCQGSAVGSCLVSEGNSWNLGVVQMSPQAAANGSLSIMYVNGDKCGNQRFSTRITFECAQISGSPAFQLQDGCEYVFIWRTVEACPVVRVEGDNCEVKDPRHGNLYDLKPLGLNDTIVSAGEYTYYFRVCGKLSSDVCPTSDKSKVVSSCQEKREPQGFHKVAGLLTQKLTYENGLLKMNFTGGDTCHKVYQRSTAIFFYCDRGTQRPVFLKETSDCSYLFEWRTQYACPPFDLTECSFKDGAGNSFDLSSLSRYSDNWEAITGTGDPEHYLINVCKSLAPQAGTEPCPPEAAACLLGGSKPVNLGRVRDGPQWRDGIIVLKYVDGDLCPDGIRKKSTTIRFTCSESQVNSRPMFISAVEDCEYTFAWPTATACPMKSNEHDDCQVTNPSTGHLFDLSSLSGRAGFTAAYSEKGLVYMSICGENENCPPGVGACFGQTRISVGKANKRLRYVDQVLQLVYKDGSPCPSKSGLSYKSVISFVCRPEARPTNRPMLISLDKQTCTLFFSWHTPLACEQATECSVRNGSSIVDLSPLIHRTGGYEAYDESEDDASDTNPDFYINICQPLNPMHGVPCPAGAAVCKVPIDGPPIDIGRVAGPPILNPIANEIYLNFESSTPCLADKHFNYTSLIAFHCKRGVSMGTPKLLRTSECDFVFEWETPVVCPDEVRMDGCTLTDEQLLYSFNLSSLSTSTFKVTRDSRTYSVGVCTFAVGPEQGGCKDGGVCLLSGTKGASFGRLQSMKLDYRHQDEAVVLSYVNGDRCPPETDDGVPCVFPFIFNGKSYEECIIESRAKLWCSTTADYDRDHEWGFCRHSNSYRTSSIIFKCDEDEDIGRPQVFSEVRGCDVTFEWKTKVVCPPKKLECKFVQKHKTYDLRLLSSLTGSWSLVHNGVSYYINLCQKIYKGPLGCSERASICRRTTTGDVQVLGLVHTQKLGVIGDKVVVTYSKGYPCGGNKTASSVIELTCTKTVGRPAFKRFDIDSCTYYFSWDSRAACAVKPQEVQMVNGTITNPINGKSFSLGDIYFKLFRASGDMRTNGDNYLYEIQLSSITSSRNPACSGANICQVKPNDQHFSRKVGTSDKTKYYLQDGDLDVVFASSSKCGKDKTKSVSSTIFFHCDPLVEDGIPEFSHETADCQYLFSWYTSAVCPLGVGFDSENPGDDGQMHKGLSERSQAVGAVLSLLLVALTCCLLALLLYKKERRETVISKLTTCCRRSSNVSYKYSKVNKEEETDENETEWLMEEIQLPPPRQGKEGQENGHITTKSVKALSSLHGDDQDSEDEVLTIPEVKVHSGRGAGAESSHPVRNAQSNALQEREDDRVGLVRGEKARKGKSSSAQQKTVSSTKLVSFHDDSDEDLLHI

| Substance | stated: internalized; internalized GAA activity (nmol/mg protein/hr) in skeletal muscle myoblasts against rhGAA added (nM) | stated: internalized; internalized GAA activity (pmol 4-MU/mg/h), 4MU-α-Glc assay, Pompe patient fibroblasts, 20 nM rhGAA | stated: taken up; internalized GAA activity in CRL 2076 (normal fibroblasts) | stated: taken up; internalized GAA activity in PM25 (Pompe fibroblasts) | stated: not internalized; internalized GAA activity (pmol 4-MU/mg/h), 4MU-α-Glc assay, Pompe patient fibroblasts, 20 nM rhGAA |
| --- | --- | --- | --- | --- | --- |
| alglucosidase alfa (mock-treated control of Example 16) | Alglucosidase alfa curve rises slowly: about 150 near 30 nM, about 250 near 60 nM, about 390 at 125 nM, about 475 at 250 nM. It is still rising with no plateau and lies below ATB200 at every concentration | bar 'Alglucosidase alfa + Mock' lies a little below the 300 tick, clearly above untreated cells and well below the cipaglucosidase alfa + Mock bar |  |  |  |
| ATB200 rhGAA (recombinant human acid α-glucosidase produced from CHO cell line GA-ATB200) | ATB200 curve rises steeply from 0, to about 400 near 15 nM and about 540 near 30 nM, then flattens: about 630 near 60 nM, about 700 at 125 nM, about 740 at 250 nM | bar 'Cipaglucosidase alfa + Mock' is the highest, a little above the 900 tick; untreated cells are at 0 | curve marked ATB200 rises steeply from about 0 to about 26 at about 10 nM and about 33 nmol/mg protein/hr at about 27 nM, then plateau of about 34-35 up to about 240 nM; with +M6P at about 240 nM (triangle) only about 5 | curve marked ATB200 rises steeply from about 0 to about 30 at about 10 nM and about 36 at about 27 nM, then plateau of about 40 nmol/mg protein/hr at about 80 nM (point of about 45 at about 240 nM); with +M6P at about 245 nM (triangle) about 1 |  |
| PAP-treated cipaglucosidase alfa (dephosphorylated cipaglucosidase alfa) |  |  |  |  | bar 'Cipaglucosidase alfa + PAP' is at about 0, at the level of 'Untreated Cells' and 'PAP Alone' |
| LUMIZYME® (alglucosidase alfa, conventional rhGAA product) |  |  | curve marked Alglucosidase Alfa rises slowly: about 8 at about 10 nM, about 16 at about 27 nM, about 23 at about 80 nM, about 35 nmol/mg protein/hr at about 240 nM, no clear plateau; with +M6P at about 240 nM (square) about 1 | curve marked Alglucosidase Alfa rises slowly: about 7 at about 10 nM, about 13 at about 27 nM, about 27 at about 80 nM, about 37 nmol/mg protein/hr at about 240 nM, still rising; with +M6P at about 245 nM (square) about 3 |  |
